The values that follow come from US20220119490A1 (Genentech, published 2022).

Assay in all cases: cell surface interaction assay: query ECD tetramerised with fluorescent streptavidin on transfected cells, immunofluorescence
For experiment [1], the target named is T1, PTPRM expressed on cells (human, UniProt P28827 21-1452).
T1 construct: whole, on cells
From the text: (§1) FIG. 3H is a schematic showing the design of the cell surface interaction assay.
(§2) Experiments shown are representative of two independent assays. […] Scale bar=50 μm.

Experiment [2] deals with T2, PTPRT expressed on cells (human, UniProt O14522 26-1441).
T2 construct: whole, on cells
T2 sequence (looked up): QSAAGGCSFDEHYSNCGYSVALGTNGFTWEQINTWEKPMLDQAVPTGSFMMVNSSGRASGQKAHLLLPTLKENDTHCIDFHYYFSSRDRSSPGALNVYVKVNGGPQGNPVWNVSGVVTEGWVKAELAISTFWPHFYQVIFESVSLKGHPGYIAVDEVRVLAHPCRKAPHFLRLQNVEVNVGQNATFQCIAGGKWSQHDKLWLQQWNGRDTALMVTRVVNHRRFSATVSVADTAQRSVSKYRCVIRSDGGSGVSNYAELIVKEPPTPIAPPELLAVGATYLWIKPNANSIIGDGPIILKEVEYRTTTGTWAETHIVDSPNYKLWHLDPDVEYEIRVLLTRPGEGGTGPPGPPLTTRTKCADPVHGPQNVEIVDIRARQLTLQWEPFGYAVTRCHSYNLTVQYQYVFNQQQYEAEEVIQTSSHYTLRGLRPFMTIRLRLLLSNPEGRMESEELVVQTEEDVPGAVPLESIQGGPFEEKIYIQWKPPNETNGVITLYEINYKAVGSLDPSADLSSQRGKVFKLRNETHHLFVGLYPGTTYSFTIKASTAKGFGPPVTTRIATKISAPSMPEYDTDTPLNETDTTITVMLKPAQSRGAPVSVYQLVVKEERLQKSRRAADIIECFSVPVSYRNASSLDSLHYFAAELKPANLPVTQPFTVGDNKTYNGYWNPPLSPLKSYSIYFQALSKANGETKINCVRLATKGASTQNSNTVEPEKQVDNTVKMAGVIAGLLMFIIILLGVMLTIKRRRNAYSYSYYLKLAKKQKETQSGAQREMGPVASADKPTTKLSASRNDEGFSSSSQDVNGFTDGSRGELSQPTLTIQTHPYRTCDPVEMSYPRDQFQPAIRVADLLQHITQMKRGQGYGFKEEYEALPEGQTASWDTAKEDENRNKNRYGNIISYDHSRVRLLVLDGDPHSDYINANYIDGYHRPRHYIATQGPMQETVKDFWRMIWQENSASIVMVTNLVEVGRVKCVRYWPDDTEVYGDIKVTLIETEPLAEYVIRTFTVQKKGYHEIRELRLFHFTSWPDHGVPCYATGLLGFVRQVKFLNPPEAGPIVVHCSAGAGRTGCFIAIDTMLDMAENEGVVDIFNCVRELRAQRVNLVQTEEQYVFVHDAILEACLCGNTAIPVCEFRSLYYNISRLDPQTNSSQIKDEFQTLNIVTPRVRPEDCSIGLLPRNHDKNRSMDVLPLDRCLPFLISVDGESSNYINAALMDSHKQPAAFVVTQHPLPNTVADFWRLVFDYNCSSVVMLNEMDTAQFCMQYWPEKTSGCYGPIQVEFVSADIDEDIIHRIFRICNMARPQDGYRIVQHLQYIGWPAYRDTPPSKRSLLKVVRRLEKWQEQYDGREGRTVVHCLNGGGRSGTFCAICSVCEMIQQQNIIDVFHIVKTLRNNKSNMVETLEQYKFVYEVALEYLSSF
Excerpt: as §1, §2

Experiment [3] has as its target T1, PTPRM expressed on cells. The source holds these as a separate data set.
The target of experiment [4] is T2, PTPRT expressed on cells. The source holds these as a separate data set.
In another experiment the target is T3, PTPRO expressed on cells (human, UniProt Q16827 30-1216).
T3 construct: whole, on cells
T3 sequence (looked up): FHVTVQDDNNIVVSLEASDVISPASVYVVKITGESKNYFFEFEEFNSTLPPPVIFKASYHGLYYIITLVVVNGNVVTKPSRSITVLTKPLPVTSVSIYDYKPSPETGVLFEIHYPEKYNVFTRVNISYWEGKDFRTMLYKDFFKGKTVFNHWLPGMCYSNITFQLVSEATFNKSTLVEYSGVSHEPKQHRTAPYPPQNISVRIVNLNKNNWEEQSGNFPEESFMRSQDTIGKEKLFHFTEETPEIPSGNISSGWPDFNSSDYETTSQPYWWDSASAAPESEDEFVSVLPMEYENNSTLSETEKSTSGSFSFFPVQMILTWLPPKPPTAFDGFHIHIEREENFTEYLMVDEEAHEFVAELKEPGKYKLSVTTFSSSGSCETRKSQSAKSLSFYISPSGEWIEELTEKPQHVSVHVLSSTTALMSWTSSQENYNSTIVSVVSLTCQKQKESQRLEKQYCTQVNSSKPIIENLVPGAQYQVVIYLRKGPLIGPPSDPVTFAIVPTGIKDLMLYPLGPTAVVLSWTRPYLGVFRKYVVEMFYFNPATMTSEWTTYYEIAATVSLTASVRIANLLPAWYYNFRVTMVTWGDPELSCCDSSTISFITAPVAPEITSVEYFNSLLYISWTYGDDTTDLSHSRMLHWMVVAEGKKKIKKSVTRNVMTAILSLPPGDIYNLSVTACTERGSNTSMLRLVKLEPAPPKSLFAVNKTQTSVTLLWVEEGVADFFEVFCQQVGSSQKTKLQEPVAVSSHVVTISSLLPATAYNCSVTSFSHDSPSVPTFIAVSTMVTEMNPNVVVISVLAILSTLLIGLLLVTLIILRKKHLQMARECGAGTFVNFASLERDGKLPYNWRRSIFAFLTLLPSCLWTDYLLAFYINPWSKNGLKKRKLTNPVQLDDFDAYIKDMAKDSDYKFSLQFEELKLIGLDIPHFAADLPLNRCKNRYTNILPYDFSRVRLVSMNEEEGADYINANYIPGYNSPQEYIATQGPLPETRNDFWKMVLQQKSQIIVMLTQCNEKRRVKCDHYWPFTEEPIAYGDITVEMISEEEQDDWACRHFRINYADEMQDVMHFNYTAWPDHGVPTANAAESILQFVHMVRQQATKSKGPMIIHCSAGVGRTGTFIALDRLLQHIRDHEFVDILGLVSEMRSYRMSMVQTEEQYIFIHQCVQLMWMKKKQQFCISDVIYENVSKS

Like-named read-outs stand apart in the source and are kept apart here.

T1 sequence (P28827 21-1452): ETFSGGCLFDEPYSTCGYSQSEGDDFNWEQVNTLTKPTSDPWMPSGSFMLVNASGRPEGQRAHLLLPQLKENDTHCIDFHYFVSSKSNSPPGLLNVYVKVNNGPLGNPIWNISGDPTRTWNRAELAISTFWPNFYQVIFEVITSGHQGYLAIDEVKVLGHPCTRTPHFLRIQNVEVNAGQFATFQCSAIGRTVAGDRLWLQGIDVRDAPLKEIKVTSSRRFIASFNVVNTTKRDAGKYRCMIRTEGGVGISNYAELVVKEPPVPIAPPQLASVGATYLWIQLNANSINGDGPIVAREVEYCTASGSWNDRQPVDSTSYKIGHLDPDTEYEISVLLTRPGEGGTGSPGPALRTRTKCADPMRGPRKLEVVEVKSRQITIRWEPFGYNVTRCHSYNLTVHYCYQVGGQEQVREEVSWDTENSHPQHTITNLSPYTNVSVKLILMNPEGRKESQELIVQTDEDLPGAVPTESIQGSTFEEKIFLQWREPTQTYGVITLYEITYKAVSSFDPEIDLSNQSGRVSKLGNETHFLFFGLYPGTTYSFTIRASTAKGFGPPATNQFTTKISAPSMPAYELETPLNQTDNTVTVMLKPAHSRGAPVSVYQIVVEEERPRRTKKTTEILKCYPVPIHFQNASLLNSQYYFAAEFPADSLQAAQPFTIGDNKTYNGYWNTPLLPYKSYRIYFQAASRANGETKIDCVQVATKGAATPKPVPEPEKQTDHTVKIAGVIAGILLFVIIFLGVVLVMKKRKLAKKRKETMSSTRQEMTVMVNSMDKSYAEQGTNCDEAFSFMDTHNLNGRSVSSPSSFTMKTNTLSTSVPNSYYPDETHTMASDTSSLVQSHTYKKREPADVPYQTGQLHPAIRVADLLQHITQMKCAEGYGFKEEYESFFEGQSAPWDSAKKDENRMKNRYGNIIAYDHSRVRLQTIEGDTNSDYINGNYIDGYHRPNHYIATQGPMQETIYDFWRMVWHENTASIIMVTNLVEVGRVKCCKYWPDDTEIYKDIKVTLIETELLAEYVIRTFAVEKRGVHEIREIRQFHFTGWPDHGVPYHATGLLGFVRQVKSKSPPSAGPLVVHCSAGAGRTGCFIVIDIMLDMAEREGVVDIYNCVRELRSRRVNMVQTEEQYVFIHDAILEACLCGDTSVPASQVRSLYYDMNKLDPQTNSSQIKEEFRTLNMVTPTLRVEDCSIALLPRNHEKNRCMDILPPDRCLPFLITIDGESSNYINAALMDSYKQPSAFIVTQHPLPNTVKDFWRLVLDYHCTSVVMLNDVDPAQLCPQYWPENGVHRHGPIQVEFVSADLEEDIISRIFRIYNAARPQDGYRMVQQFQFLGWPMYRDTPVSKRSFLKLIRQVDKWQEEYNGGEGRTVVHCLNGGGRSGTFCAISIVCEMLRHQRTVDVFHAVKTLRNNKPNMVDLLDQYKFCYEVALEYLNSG

B1: LRFN5 extracellular domain (receptor, human, UniProt Q96NI6 18-529, looked up)
chain: QICPKRCVCQILSPNLATLCAKKGLLFVPPNIDRRTVELRLADNFVTNIKRKDFANMTSLVDLTLSRNTISFITPHAFADLRNLRALHLNSNRLTKITNDMFSGLSNLHHLILNNNQLTLISSTAFDDVFALEELDLSYNNLETIPWDAVEKMVSLHTLSLDHNMIDNIPKGTFSHLHKMTRLDVTSNKLQKLPPDPLFQRAQVLATSGIISPSTFALSFGGNPLHCNCELLWLRRLSREDDLETCASPPLLTGRYFWSIPEEEFLCEPPLITRHTHEMRVLEGQRATLRCKARGDPEPAIHWISPEGKLISNATRSLVYDNGTLDILITTVKDTGAFTCIASNPAGEATQIVDLHIIKLPHLLNSTNHIHEPDPGSSDISTSTKSGSNTSSSNGDTKLSQDKIVVAEATSSTALLKFNFQRNIPGIRMFQIQYNGTYDDTLVYRMIPPTSKTFLVNNLAAGTMYDLCVLAIYDDGITSLTATRVVGCIQFTTEQDYVRCHFMQSQFLGGTM
notes: extracellular domain; Streptavidin tetramer in cell assay; ECD-Fc prey in the variant screen; also called LFRN5
On to B1, for which the binding result in the experiment with PTPRM expressed on cells [1] and in the experiment with PTPRT expressed on cells [2] was “no binding” in each case.

B2: CNTN1 extracellular domain (receptor, human, UniProt Q12860 21-993, looked up)
chain: EFTWYRRYGHGVSEEDKGFGPIFEEQPINTIYPEESLEGKVSLNCRARASPFPVYKWRMNNGDVDLTSDRYSMVGGNLVINNPDKQKDAGIYYCLASNNYGMVRSTEATLSFGYLDPFPPEERPEVRVKEGKGMVLLCDPPYHFPDDLSYRWLLNEFPVFITMDKRRFVSQTNGNLYIANVEASDKGNYSCFVSSPSITKSVFSKFIPLIPIPERTTKPYPADIVVQFKDVYALMGQNVTLECFALGNPVPDIRWRKVLEPMPSTAEISTSGAVLKIFNIQLEDEGIYECEAENIRGKDKHQARIYVQAFPEWVEHINDTEVDIGSDLYWPCVATGKPIPTIRWLKNGYAYHKGELRLYDVTFENAGMYQCIAENTYGAIYANAELKILALAPTFEMNPMKKKILAAKGGRVIIECKPKAAPKPKFSWSKGTEWLVNSSRILIWEDGSLEINNITRNDGGIYTCFAENNRGKANSTGTLVITDPTRIILAPINADITVGENATMQCAASFDPALDLTFVWSFNGYVIDFNKENIHYQRNFMLDSNGELLIRNAQLKHAGRYTCTAQTIVDNSSASADLVVRGPPGPPGGLRIEDIRATSVALTWSRGSDNHSPISKYTIQTKTILSDDWKDAKTDPPIIEGNMEAARAVDLIPWMEYEFRVVATNTLGRGEPSIPSNRIKTDGAAPNVAPSDVGGGGGRNRELTITWAPLSREYHYGNNFGYIVAFKPFDGEEWKKVTVTNPDTGRYVHKDETMSPSTAFQVKVKAFNNKGDGPYSLVAVINSAQDAPSEAPTEVGVKVLSSSEISVHWEHVLEKIVESYQIRYWAAHDKEEAANRVQVTSQEYSARLENLLPDTQYFIEVGACNSAGCGPPSDMIEAFTKKAPPSQPPRIISSVRSGSRYIITWDHVVALSNESTVTGYKVLYRPDGQHDGKLYSTHKHSIEVPIPRDGEYVVEVRAHSDGGDGVVSQVKIS
notes: extracellular domain; Streptavidin tetramer in cell assays; ECD-Fc in SPR; also called contactin 1
As for B2, the binding result in the experiment with PTPRM expressed on cells [3], with PTPRT expressed on cells [4] and with PTPRO expressed on cells was “no binding” throughout.
